# Measured values taken from US20260152546A1.
# Residue numbers refer to the chain shown, from its start. Where two headings read alike, the source gives them in different places.
# B1: PGT145 (antibody, V domains shown)
# VH: QVQLVQSGAEVKKPGSSVKVSCKASGNSFSNHDVHWVRQATGQGLEWMGWMSHEGDKTGLAQKFQGRVTITRDSGASTVYMELRGLTADDTAIYYCLTGSKHRLRDYFLYNEYGPNYEEWGDYLATLDVWGHGTAVTVSS
# VL: EVVITQSPLFLPVTPGEAASLSCKCSHSLQHSTGANYLAWYLQRPGQTPRLLIHLATHRASGVPDRFSGSGSGTDFTLKISRVESDDVGTYYCMQGLHSPWTFGQGTKVEIKR
# B2: PG9RSH N(100f)Y (antibody, V domains shown)
# VH: ERLVESGGGVVQPGSSLRLSCAASGFDFSRQGMHWVRQAPGQGLEWVAFIKYDGSEKYHADSVWGRLSISRDNSKDTLYLQMNSLRVEDTATYFCVREAGGPDYRNGYYYYDFYDGYYNYHYMDVWGKGTTVTVSS
# VL: QSALTQPASVSGSPGQSITISCQGTSNDVGGYESVSWYQQHPGKAPKVVIYDVSKRPSGVSNRFSGSKSGNTASLTISGLQAEDEGDYYCKSLTSRSHRVFGTGTKLTVLG
# B3: PG9RSH Y(100k)D (antibody, V domains shown)
# VH: B2 VH with Y109N, Y114D
# VL: B2 VL
# Experiments:
# [1] = biological target: HIV-1 Env of the BG505 strain (on pseudovirus) (HIV-1)
# [2] = biological target: panel of 208 geographically and genetically diverse HIV-1 Env pseudoviruses
# [3] = biological target: panel of 208 geographically and genetically diverse HIV-1 Env pseudoviruses; remark: listed apart in the source
# [4] = biological target: HIV-1 Env of pseudovirus 16936-2.21 (clade C) (HIV-1)
# [5] = biological target: HIV-1 Env of pseudovirus 191821.E6.1 (clade D) (HIV-1)
# [6] = biological target: HIV-1 Env of pseudovirus 246-F3.C10.2 (clade AC) (HIV-1)
# [7] = biological target: HIV-1 Env of pseudovirus CAP256.206.C9 (clade C) (HIV-1)
# [8] = biological target: HIV-1 Env of pseudovirus CH038.12 (clade BC) (HIV-1)
# [9] = biological target: HIV-1 Env of pseudovirus Q259.17 (clade A) (HIV-1)
# [10] = biological target: HIV-1 Env of the BG505 strain (on pseudovirus) (HIV-1); remark: listed apart in the source
# [11] = biological target: HIV-1 Env of pseudovirus ZM233.6 (clade C) (HIV-1)
# [12] = biological target: HIV-1 Env of pseudovirus ZM233.6 (clade C) (HIV-1); remark: listed apart in the source
# [13] = biological target: HIV-1 Env of the BG505 strain (on pseudovirus) (HIV-1); remark: listed apart in the source
Molecule,IC50 [1] [µg/mL],IC80 [1] [µg/mL],"% of viruses neutralized, IC50 50 µg/mL [2] [%]","Mean IC50 (geometric mean, samples with IC50 < 50 µg/mL) [2] [µg/mL]",Median IC50 (samples with IC50 < 50 µg/mL) [2] [µg/mL],"% of viruses neutralized, IC80 < 1.0 µg/mL [3] [%]","Mean IC80 (geometric mean, samples with IC80 < 50 µg/mL) [3] [µg/mL]",Median IC80 (samples with IC80 < 50 µg/mL) [3] [µg/mL],other results
PGT145 N(100l)D (antibody),0.003,0.01,–,–,–,–,–,–,–
B1,0.01,0.253,75,0.086,0.053,39,0.343,0.276,IC50 (WT) [4]: 5.14 µg/mL; IC50 (WT) [5]: 3.35 µg/mL; IC50 (WT) [6]: 17.4 µg/mL; IC50 (WT) [7]: 3.95 µg/mL; IC50 (WT) [8]: 46.5 µg/mL; IC50 (WT) [9]: 45 µg/mL
B2,–,–,83,0.04,0.025,62,0.106,0.086,IC50 [10]: 0.009 µg/mL; IC80 [10]: 0.023 µg/mL; fold decrease in IC50 relative to wild type [11]: 63 fold
B3,–,–,87,0.035,0.017,63,0.078,0.058,IC50 (variant) [12]: 0.001 µg/mL; fold-change in IC50 between wild type and variant [12]: 110 fold; IC50 [13]: 0.004 µg/mL; IC80 [13]: 0.01 µg/mL
